Each block holds one molecule with its values, some of them ahead of it.
Experiments:
[1] = molecular target: extracellular domain of ZIP14 from Pteropus alecto (Pteropus alecto); assay: SEC; purified protein on a size exclusion column; elution volume compared with standard proteins eluted on the same column
[2] = molecular target: pZIP14-ECD C147S mutant (Pteropus alecto); assay: as above
[3] = molecular target: the molecule itself; assay: cross-linking; disulfide through an engineered cysteine; full-length hZIP4-HA transiently expressed in HEK293T cells; 4-20% gradient SDS-PAGE with or without 5% β-mercaptoethanol, western blot with anti-HA
[4] = molecular target: the molecule itself; assay: SEC; purified protein on a size exclusion column; elution volume compared with standard proteins eluted on the same column

stoichiometry N [1]: 2
Molecule: extracellular domain of ZIP14 from Pteropus alecto (from UniProt A5D7L5 61-174) (domain or fragment)

stoichiometry N [2]: 2
Molecule: pZIP14-ECD C147S mutant (from UniProt A5D7L5 61-174) (domain or fragment)

The next lines start with the molecule.

B1: full-length human ZIP4 S297C mutant with C-terminal HA tag (natural protein, UniProt Q6P5W5-1 23-647, looked up)
chain: SPPAGLLSLLTSGQGALDQEALGGLLNTLADRVHCANGPCGKCLSVEDALGLGEPEGSGLPPGPVLEARYVARLSAAAVLYLSNPEGTCEDARAGLWASHADHLLALLESPKALTPGLSWLLQRMQARAAGQTPKMACVDIPQLLEEAVGAGAPGSAGGVLAALLDHVRSGSCFHALPSPQYFVDFVFQQHSSEVPMTLAELSALMQRLGVGREAHSDHSHRHRGASSRDPVPLISSSNSSSVWDTVCLSARDVMAAYGLSEQAGVTPEAWAQLCPALLQQQLSGACTSQSRPPVQDQLSQSERYLYGSLATLLICLCAVFGLLLLTCTGCRGVTHYILQTFLSLAVGAVTGDAVLHLTPKVLGLHTHSEEGLSPQPTWRLLAMLAGLYAFFLFENLFNLLLPRDPEDLEDGPCGHSSHSHGGHSHGVSLQLAPSELRQPKPPHEGSRADLVAEESPELLNPEPRRLSPELRLLPYMITLGDAVHNFADGLAVGAAFASSWKTGLATSLAVFCHELPHELGDFAALLHAGLSVRQALLLNLASALTAFAGLYVALAVGVSEESEAWILAVATGLFLYVALCDMLPAMLKVRDPRPWLLFLLHNVGLLGGWTVLLLLSLYEDDITF
notes: Human zinc transporter ZIP4 (SLC39A4), GenBank BC062625, with S297C (S297 is equivalent to S293 in pZIP4); Intermolecular disulfide C297-C297* in the dimer; also called S297C mutant ZIP4; source: HEK293T, transiently transfected, in lysate; not shown: HA, C-terminal, kept
stoichiometry N [3]: 2

B2: ZIP4 extracellular domain from Pteropus alecto (black fruit bat) (domain or fragment, UniProt L5KLU7 36-322, looked up)
chain: SGQGALDRVALGGLLNTLAARVHCTSGPCGKCLSVDDLLALGRPEEPGHLARLSAAAALYLSDPEGTCEDIRAGRWASRADHLLALLEGPKALAPGLSRLLQRIQAQTTGQPSAGEACVDPPQLLREAGVAGAPGSPGPVLATLLEHVGRGSCFHTLPTPQYFVDFVFQQSHGNTPNISVAELAALMQRLGVGGVTETHSDHHHQEKRVNRQGPTPLTAPNSSSDTWDTVCLSARDVMAVYGLSEQTGVTPEAWAQLSPALLQQQLSGACSPQPSHPAQNQLSQAEK
notes: Zinc transporter ZIP4 (SLC39A4) of Pteropus alecto, GenBank ELK11751, residues 36-322 (extracellular domain: HRD 36-191 and PCD 192-322); A selenomethionine-substituted form was also crystallised for phasing; Four intramolecular disulfide bonds (C59-C64, C67-C103, C153-C188, C266-C305); also called pZIP4-ECD; ZIP4-ECD; source: E. coli Origami B(DE3) pLysS, purified (Ni-NTA, Mono-Q, SEC); not …
stoichiometry N [4]: 2

— publication PMC4915132, “Structural insights of ZIP4 extracellular domain critical for optimal zinc transport” (Nature Communications, 2016)
